Where a chain is given by its changes, count along the chain named.
B1: 12D02 (antibody, mouse IgG1, kappa, V domains shown)
VH: EVQLQQSGPELVKPGASMKISCKASGYSFTAYTMNWVKQSHGENLEWIGLINPYNGGTTYNQKFKGKATLTVDKSSSTAYMELLSLTSEDSAVYYCASYDYGYAMDYWGQGTSVTVSS
VL: DVLMTQTPLSLPVSLGDQASISCRSSQSIVHRNGNTYLEWYLQKPGQSPKLLIYKVSNRFSGVPDRFSGSGSGTDFTLKISRVEAEDLGVYYCFQGSHVPWTFGGGTKLEIKR
notes: Mouse monoclonal from hybridoma (second phase screen), IgG1 kappa; also called cAb5775
B2: 12A12 (antibody, mouse IgG1, kappa, V domains shown)
VH: B1 VH with A16V
VL: B1 VL with N33S
notes: Mouse monoclonal from hybridoma (second phase screen), IgG1 kappa; also called cAb5776
B3: 12D08 (antibody, mouse IgG2a, kappa, V domains shown)
VH: EVQLQQSGAELVKPGASVKLSCTASGFNIKDTYMHWVKQRPEQGLIWIGNIDPANGHTKYAPKFQGKATITADTSSNTAYLQLSSLTSEDTAVYYCARSNDYDVDFDYWGQGTTLTVSS
VL: DIVMSQSPSSLAVSAGEKVTMSCKSSQSLLNSRTRKNYLAWYQQKPGQSPKLLIYWASTRESGVPDRFTGSGSGTDFSLTISSVQAEDLAVYYCKQSYNLYTFGGGTKLEIKR
notes: Mouse monoclonal from hybridoma (second phase screen), IgG2a kappa; also called cAb5777
B4: 13G04 (antibody, mouse IgG1, kappa, V domains shown)
VH: EVHLQQSGPELVKPGASMKISCKASGYSFTAYTMNWVKQSHGKNLEWIGLINPYNGGTTYNQKFKGKATLTVDKSSSTAYMELLSLTSEDSAVYYCASYYGGRGWYFDVWGAGTSVTVSS
VL: DIVLTQSPASLAVSLGQRATISCRASKSVSTSGYSYVHWYQQKPGQPPKLLIYLASNLESGVPARFSGSGSGTDFTLNIHPVEEEDAATYYCQNSRELPYTFGGGTKLEMKR
notes: Mouse monoclonal from hybridoma (second phase screen), IgG1 kappa; also called cAb5778
B5: 07F11C02 (antibody, mouse IgG2a, kappa, V domains shown)
VH: DVQLVESGGGLVQPGGSRKLSCAASGFAFSSFGMHWVRQAPERGLEWVAYISSASNTIYYADTVKGRFTISRDNPKSTLFLQMTSLRSEDTAIYYCAKRDWDLYAMDYWGQGTSVTVSS
VL: DIVMTQSQKFLSTSVGDRVTITCKASQNVGTAVAWYQQKPGQSPELLIYSASNRHTGVPARFTGSGSGTDFTLTITNMQSEDLADYFCQQYSSSPTFGGGTKLESKR
notes: Mouse monoclonal purified from hybridoma, IgG2a kappa; also called cAb4853

The binders below were run against T1, native cell surface CEMIP/KIAA1199 on human MKN45 gastric and N2LA lung cancer cells (human, UniProt Q8WUJ3 31-1361) (assay: flow cytometry on MKN45 cells).
T1 construct: Endogenous CEMIP on live CEMIP-high human cell lines (MKN45, N2LA), the target in flow cytometry; also called native CEMIP expressed on the surface
T1 sequence: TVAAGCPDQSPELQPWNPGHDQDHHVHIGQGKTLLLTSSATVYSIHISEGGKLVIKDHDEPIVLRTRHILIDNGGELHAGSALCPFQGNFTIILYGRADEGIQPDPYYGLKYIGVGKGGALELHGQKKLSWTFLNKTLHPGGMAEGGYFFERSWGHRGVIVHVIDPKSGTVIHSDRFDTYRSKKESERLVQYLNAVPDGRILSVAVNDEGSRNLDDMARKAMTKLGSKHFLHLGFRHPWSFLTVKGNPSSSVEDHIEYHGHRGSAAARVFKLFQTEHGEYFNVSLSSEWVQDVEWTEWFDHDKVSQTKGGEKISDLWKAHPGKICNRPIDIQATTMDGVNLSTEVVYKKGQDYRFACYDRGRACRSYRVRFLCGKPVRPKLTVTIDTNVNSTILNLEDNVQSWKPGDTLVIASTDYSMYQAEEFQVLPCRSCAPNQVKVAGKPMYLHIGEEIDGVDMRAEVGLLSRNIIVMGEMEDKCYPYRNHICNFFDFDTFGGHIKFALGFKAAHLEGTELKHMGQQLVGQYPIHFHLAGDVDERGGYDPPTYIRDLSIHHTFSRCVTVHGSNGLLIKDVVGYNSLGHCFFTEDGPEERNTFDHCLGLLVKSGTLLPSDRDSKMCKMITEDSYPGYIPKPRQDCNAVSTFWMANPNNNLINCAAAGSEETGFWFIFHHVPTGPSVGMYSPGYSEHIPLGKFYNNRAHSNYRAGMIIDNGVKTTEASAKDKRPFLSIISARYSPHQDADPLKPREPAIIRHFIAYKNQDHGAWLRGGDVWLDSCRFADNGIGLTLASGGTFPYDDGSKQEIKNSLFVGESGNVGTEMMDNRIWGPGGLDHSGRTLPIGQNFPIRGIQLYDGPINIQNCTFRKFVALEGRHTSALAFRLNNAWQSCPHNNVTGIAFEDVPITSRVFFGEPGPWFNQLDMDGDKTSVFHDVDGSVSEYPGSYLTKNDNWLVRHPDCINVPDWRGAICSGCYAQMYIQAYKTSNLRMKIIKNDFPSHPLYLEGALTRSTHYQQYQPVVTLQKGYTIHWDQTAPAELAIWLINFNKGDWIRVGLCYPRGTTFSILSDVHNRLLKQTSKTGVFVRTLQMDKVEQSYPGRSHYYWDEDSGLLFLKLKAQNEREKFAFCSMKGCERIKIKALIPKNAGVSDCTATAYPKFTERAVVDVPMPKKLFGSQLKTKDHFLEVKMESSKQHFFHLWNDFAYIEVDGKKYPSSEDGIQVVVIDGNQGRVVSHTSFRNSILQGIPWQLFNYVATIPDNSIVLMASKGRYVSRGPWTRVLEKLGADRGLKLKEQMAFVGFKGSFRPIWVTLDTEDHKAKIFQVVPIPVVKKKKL

Binding result, binds:
B1
B2
B3
B4

Each binder was assayed against T1, native cell surface CEMIP/KIAA1199 on … (assay: flow cytometry on live MKN45 and N2LA cells, purified antibody).
Protocol: The binding of anti-CEMIP antibodies to native CEMIP expressed on the surface of human MKN45 gastric and N2LA lung cancer cell lines is shown.
Purified monoclonal antibodies were tested in secondary flow-cytometry screens on 2 CEMIPhi cell lines, MKN45 and N2LA (FIG. 13). Flow cytometry is performed on live cells, and antibodies bind to the native cell surface CEMIP/KIAA1199. Three antibody clones with high affinity and specificity for human KIAA1199/CEMIP were identified from the first screen: 07F11C02, 10F01B02 and 01F11A01, and the sequence of these antibodies was obtained (Table 12). One of these clones resulted from the protein immunization and two resulted from the DNA immunization (FIG.

Binding result, binds:
B5

What follows are binders tested against T2, recombinant/purified KIAA1199/CEMIP protein (amino acids 1-649) (human, UniProt Q8WUJ3 31-649) (assay: ELISA on recombinant CEMIP, purified antibody (with flow cytometry as second assay)).
T2 construct: Truncated CEMIP used as immunogen and as ELISA antigen; also called truncated version of KIAA1199/CEMIP protein
T2 sequence: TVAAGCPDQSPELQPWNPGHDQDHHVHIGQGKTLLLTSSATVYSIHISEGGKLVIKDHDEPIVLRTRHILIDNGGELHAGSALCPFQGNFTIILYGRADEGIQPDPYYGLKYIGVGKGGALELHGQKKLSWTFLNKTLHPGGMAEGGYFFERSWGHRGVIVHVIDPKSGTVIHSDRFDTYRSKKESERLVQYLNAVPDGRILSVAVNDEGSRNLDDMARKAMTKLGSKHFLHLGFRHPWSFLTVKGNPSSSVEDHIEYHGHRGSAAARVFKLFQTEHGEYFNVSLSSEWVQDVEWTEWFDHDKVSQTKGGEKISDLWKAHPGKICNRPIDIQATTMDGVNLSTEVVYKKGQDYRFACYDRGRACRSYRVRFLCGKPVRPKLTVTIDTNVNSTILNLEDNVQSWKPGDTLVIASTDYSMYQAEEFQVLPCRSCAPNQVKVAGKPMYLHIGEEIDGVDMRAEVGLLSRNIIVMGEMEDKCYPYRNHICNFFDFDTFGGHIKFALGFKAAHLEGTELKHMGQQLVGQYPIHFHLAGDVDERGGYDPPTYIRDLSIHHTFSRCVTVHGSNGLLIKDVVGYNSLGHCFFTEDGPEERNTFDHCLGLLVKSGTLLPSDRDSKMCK

Binding result, binds:
B1
B2
B3
B4
